Experimental findings from PMC12005729 are described below.

A word on the stoichiometry N: it is the number of molecules, sites or subunits per partner or assembly.

Holding throughout (test): native gel or EMSA + other: dynamic light scattering; self-assembly into the 24-mer cage; DLS at 25 °C, 1 µM protein in 50 mM Tris-HCl, pH 8, 150 mM NaCl
Assay [1] has as its target Fr‐F1 (Fr‐R59F), mutant of recombinant horse spleen apo‐L ferritin (horse).
Assay [2] addresses Fr‐F2 (Fr‐E56F/R59F), mutant of recombinant horse spleen apo‐L ferritin (horse).
Assay [3] has as its target Fr‐F4 (Fr‐R52F/E56F/R59F/E63F), mutant of recombinant horse spleen apo‐L ferritin (horse).
For assay [4], the target named is Fr‐F5/59A (Fr‐E53F/E56F/E57F/R59A/E60F/E63F), mutant of recombinant horse spleen apo‐L ferritin (horse).
Assay [5] concerns the target Fr‐F5/59L (Fr‐E53F/E56F/E57F/R59L/E60F/E63F), mutant of recombinant horse spleen apo‐L ferritin (horse).
Assay [6] addresses Fr‐F6 (Fr‐E53F/E56F/E57F/R59F/E60F/E63F), mutant of recombinant horse spleen apo‐L ferritin (horse).

Consider “Fr‐F1 (Fr‐R59F), mutant of recombinant horse spleen apo‐L ferritin (natural protein)”, for which the stoichiometry N in assay [1] was 24.
Take “Fr‐F2 (Fr‐E56F/R59F), mutant of recombinant horse spleen apo‐L ferritin (natural protein)”: the stoichiometry N in assay [2] is 24.
For the substance “Fr‐F4 (Fr‐R52F/E56F/R59F/E63F), mutant of recombinant horse spleen apo‐L ferritin (natural protein)”, in assay [3], the stoichiometry N turned out to be 24.
In the case of “Fr‐F5/59A (Fr‐E53F/E56F/E57F/R59A/E60F/E63F), mutant of recombinant horse spleen apo‐L ferritin (natural protein)”, the stoichiometry N in assay [4] came to 24.
“Fr‐F5/59L (Fr‐E53F/E56F/E57F/R59L/E60F/E63F), mutant of recombinant horse spleen apo‐L ferritin (natural protein)”: the stoichiometry N in assay [5] was 24.
For the substance “Fr‐F6 (Fr‐E53F/E56F/E57F/R59F/E60F/E63F), mutant of recombinant horse spleen apo‐L ferritin (natural protein)”, the stoichiometry N in assay [6] stood at 24.
